Results from the domain aggregation screens of Martell et al. (2025).

Experiment: soluble fraction after stress (log2 fold change); higher = more stays soluble; pooled small domains, quantitative proteomics
Details: stress: 75 degC
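Further: 20 min heating vs room temperature control held 20 min.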

In order of rising “soluble fraction (log2)” value:
1. HMDLVIALNSRIRVIREPFFGKLGTVIDLPHKLHKMESGTMTRVAKIKFDDRTEEIIPRTNLEVILS  -3.54
2. HMDLDYSGIMNVLNQKYHITFYNNKKIQNLMPKLMIIMGYNSIINEIGHSKSLKALINSFEEKLKSYILT  -3.19
3. HMDLRIKEIMSERNVTSAWLAEKVGISKVAVSNIVTGKSSPSLDNLLKIADALNVSITTLIG  -2.6
4. HMDKIYVYTTRGQVIELPRGSTAIDFAYKIQTDIGNMIIAAIVNDKLVDANYVLHNKDRVKIVTS  -2.57
5. HMDLMSTNEKLLYTMRYLISKSLDGAITEEEIRRLDRLIIENSQARAYYVEYLQIHTHLRKLMQQNPELK  -2.39
6. HMDKLNKELVSRMMDDAAWKELSKDFPWTEQLLEKYMNYVDWKEISRNYNVVWTKSLLEKFKHRLDWHE  -2.32
7. HMDLFREERRQAILDWLATAGRVSVAELSASFGVSEVTVRADLQALADRRLVVRTHGGAMMAG  -2.1
8. HMDKEVMEAVLRILYDDDFNPDQRDAILYFFVQELDQRTISEITGAKIGTVKKRIHDGLKKLRQKLAKEDL  -2.04
9. HMDLHSQVFESYERKIREVLREGPLTFEEILHAFALKRHETVAQVITYLMDEGKMSDSGDGKLIYSG  -0.86
10. HMDKVVGSAGDVTSRITANSGEVKIDGQIWQARSYDETIAIEAGEKIEVFDLDGITLIVYPI  -0.833
11. HMDLYEILGVRRGAGGGEIRRAYRRLARRYHPDVNPGDREAQARYALITRAFETLNDPERRRAYDAGVP  -0.817
12. HMDLAENWKDDADITLAEYNAIRSRYKPGKLHRDTEFMIARDMLIRPETVLAIAHSRFSNVHTHPV  -0.787
13. HMDKGQRGWINLVSVPTARVIIDGYDTGHETPLYGYEVERGKRKVTLISLDGTYERTYEIRIEPGTTTRVR  -0.779
14. HMDLLIFSPSLGQHVRDLKRVIDRLHQHGIPVRWQKAKLLREEIEYIGWTWKSGGLIDPTNV  -0.672
15. HMDKGEQILQQALDKLPPKQRQVFEMRYFDEMPYREIATITETSEGALKASYHHAVKKIQQYISHL  -0.604
16. HMDKEVLYVTVNDKKVKLDGKNHIFIDIFNYIDFDIKKPNGSIVLKLNGKNAGYMDEIKDGDKIEIYWDK  -0.535
17. HMDLIISDIRMPEMRGDDFLEWIKANELFKHIPVIMLSSEDSTTERIRLLEIGAEDYIVKPFNPMELKIR  -0.495
18. HMDLRYKVQYNFIDQGMMTKDELLKFSLNQDDVSKIAVFDNDSKQWKEIYAITEISEKLGIS  -0.452
19. HMDLEIENYDLREILNLFKLDYNFDNVDLKRAQKIALKTHPDKSNLPKEYFMFFMKAFQIVQQIYYYRY  -0.441
20. HMDKQGGWLTMAEAAEKLGVTHHVIRRLIKEKILPAEQVMRHAPHQIRIVDLESDAVAEALRHR  -0.356
21. HMDMAENEEYKVIMGQAQQLAEQFFPADDNTRRIMLGQLKLENYSLYLLTKQILDEATKGQAAAAN  -0.264
22. HMDLDPVEKLHLLSQLYVGQLKGSFVVKEKNQKTTIIGEVRELSHQTLSIRTNEGYRLIEVADILEIRLWE  -0.216
23. HMDLTIEQTTVLGKRLFSNALNSLGKKQRNIKKDAIESLLKRMNLKDMDQLYESIGIGDKSPLLMAQILL  -0.156
24. HMDKMVAVPNVRGIEASEAEATLIAQGLFVEVEKSDSEDANVAYGEVYAQTPKAGNRVEEGTTITIKVRTE  -0.0615
25. HMDKIEVVEVDMSKPYEDMTVTELQNVILDKLASNGPVTNQMKKDVSENIYHDSLVNWAKSF  -0.0122
26. HMDKMIFFKNKENNDDNQLVKIGALLIHAAKIDEDFSQEEENIIKQTLINFGAGNKNINEIIEKAKKME  0.0233
27. HMDLEGLSNKELVTLRGQIQDDLNKWATEVGIIDPKNRPDDYNRALQSLEDAKRQRSAIDAKL  0.0844
28. HMDLRIIKTKKAIKTAFLNLLKENKYHNITISAISETALINRKTFYAHYETKDELYADVIEDALRVLSP  0.114
29. HMDKNNLHSVLQDVPGIGPKRMKELMRAFGSVEGMKKAGLEELAAVKGMNHKAAEALIQFFR  0.163
30. HMDLDEELDFLSDADESATKLDLARAYIDMGDKDGARDILAEVLEEGRSEQKREAQALLDSI  0.249
31. HMDNFDVVLTSPGDQKVQVIKAVRSITGLGLKEAKDLVDGAPNTVKEGVKKLDAEEMLKQLTEAGATGEL  0.35
